Numbering of substitutions follows the chain as printed. One block for each binder: values may come before it. Square brackets hold non-standard residues; d marks the D form. Ends that are not written are not given here. pS = N[C@@H](COP(=O)(O)O)C(=O)O
How the values were obtained:
[1] = target: T1, phosphorylated MCAK fragment Ile-Gln-Lys-Gln-Lys-Arg-Arg-Ser(PO3H2)-Val-Asn-Ser-Lys-Ile-Pro-Ala (SEQ ID NO:17) (human, also: Glu(biotinyl-PEG) coupled to the peptide, site not given here); test: ELISA, biotinylated peptide on streptavidin plate
T1 construct: Fragment of human mitotic centromere-associated kinesin (KIF2C, UniProt Q99661 printed); biotinylated control peptide; also called MCAK phosphopeptide
T1 peptide: IQKQKRR[pS]VNSKIPA
Method: Peptides representing the Tau pS422 sequence 416-430 (phosphorylated and non phosphorylated) and MCAK_Human (88-102)[95-pSer] were synthesized and biotinylated to allow the coating to a streptavidin labeled microtiter plate. To test for maximal binding of Tau phosphopeptide to the assay plates, different concentrations of Tau phosphopeptide ranging from 1 ng/ml to 2000 ng/ml were used for coating. Finally 50 ng/ml Tau phosphopeptide was used for coating for 60 min at room temperature. Anti Tau pS422 antibodies 2.10.3., 2.20.4. and 5.6.11 were incubated in the peptide labeled microtiter plates for 60 min in concentrations up to 1000 ng/ml. After washing, the binding of the antibodies was detected using an anti-mouse—IgG Fc antibody which was POD-labeled. After incubation with ABTS® for 20 min at room temperature absorbance (O.D.) at 405 nm-492 nm was measured. The antibody binding was determined by EC₅₀. Typical EC₅₀ value could be determined in the range of 100 ng/ml for 2.10.3., 8 ng/ml for 2.20.4. and 1 ng/ml for 5.6.11. The nonphosphorylated Tau fragment and (MCAK_Human (88-102)[95-pSer]) were used as controls. No binding of the control peptides could be observed. Typical back-ground values were around 30 mE (Table 1), which is about 1% of the maximal value measured with phosphorylated Tau fragment. […]

[2] = target: T2, KLH (key hole limpet hemocyanine); test: ELISA, single point, KLH coated
T2 construct: Control antigen coated at 1 µg/ml
Method: (§1) Rabbit monoclonal antibodies were recombinantly expressed in HEK 293 cells. Cell culture supernatants or purified rabbit antibodies were tested for binding to biotinylated Tau (416-430)[pS422], non-phosphorylated Tau (416-430), KLH (key hole limpet hemocyanine) and the unrelated phospho-peptide MCAK_Human (88-102)[95-pSer] by ELISA. For the preparation of ELISA plates, streptavidine pre-coated microtiter plates were incubated with biotinylated Tau ([…])[pS422] at 50 ng/ml for 1 hour at room temperature. Coating with KLH or control peptides was performed at 1 μg/ml. Rabbit Anti Tau pS422 antibody (Abcam AB51071) or rabbit antibody containing supernatants were incubated in the antigen labeled microtiter plates for 60 min at various concentrations. After intensive washing, the binding of the rabbit antibodies was detected using a sheep anti-rabbit IgG digoxigenin conjugated detection antibody (Chemicon AQ301D). After incubation with TMB at room temperature absorbance at 370 nm-492 nm was measured. The antibody binding was characterized by its EC50 values. The antibody binding to biotinylated Tau (416-430)[pS422] and non-phosphorylated Tau (416-430) peptides was characterized by its EC50 values. Cross-reactivity with KLH or MCAK phosphopeptide was estimated by single-point measurement at high concentrations, i.e. at 1:5 dilution of the cell culture supernatants. […] Binding to KLH and MCAK control phosphopeptide was at background level with all antibodies, which is about […] of the maximal value measures with Tau phosphopeptide.

[3] = target: T3, phosphorylated Tau fragment Ser-Ile-Asp-Met-Val-Asp-Ser(PO3H2)-Pro-Gln-Leu-Ala-Thr-Leu-Ala-Asp (SEQ ID NO:9) (human, also: biotin attached through 1x epsilon-lysine and 4x beta-alanine, site not given here); test: ELISA, ratio of EC50 values on the two peptides
T3 construct: also called Tau (416-430)[pS422]; Tau phosphopeptide
T3 peptide: SIDMVD[pS]PQLATLAD

[4] = target: T1, phosphorylated MCAK fragment …; test: ELISA, single point, MCAK phosphopeptide coated
Method: as §1

[5] = target: T3, phosphorylated Tau fragment …; test: ELISA, biotinylated peptide on streptavidin plate, anti-rabbit IgG detection
Method: as §1

[6] = target: T4, Tau fragment Ser-Ile-Asp-Met-Val-Asp-Ser-Pro-Gln-Leu-Ala-Thr-Leu-Ala-Asp (SEQ ID NO:10) (human, also: biotinylated, site not given here); test: as above
T4 construct: Biotinylated control peptide on streptavidin plates; also called nonphosphorylated Tau fragment; non-phosphorylated Tau (416-430)
T4 peptide: SIDMVDSPQLATLAD
Method: as §1

binding result [1]: no binding (tested: up to 1000 ng/ml)
B1: Mab2.10.3 (anti-Tau pS422 antibody) (antibody, IgG1, V domains shown)
VH: EVQLVESGGDLVRPGGSLKLSCAASGFTFRTYGMSWVRQTADKRLEWVATISSGGTYTYYADNVRERFTISRDNARDTLYLQMSRLESDDTAMYYCTRRYGYDGGGSFDVWGAGTRVTVSS
VL: EIVMTQAAPSVPVTPGESASISCRSNKSLLHSNGNTYLCWFLQRPGQSPQLLIYRMSTLAPGVPDRFSGSGSGTAFTLRISRLEAEDVGVYYCMQHIEYPLTFGAGTKLELK
notes: Mouse monoclonal antibody purified from hybridoma supernatant; also called clone 2.10.3; Tau_2.10.3

OD 1:5 dilution of supernatant [2]: 0.029 mE | selectivity compared to non-phosphorylated Tau peptide [3]: ≥ 100 fold | OD 1:5 dilution of supernatant [4]: 0.062 mE | EC50 [5]: 0.0009 µg/mL | EC50 [6]: 0.146 µg/mL
B2: anti-Tau pS422 antibody Mab 085 (antibody, V domains shown)
VH: QSVEESGGRLVTPGTPLTLTCTVSGLSLSSNAINWVRQAPGKGLEWIGYIAVSGNTYYASWAKGRFTISKASTTVDLKMTSPTAEDTGTYFCGKSNIWGPGTLVTVSL
VL: QVLTQTASPVSAAVGITVTISCQSSQSVRTNKLAWFQQKPGQPPKRLIYSASTLDSGVPSRFSASGSGTQFTLTISDVQCDDAATYYCLGYYDCSIADCVAFGGGTEVVVK
notes: Rabbit monoclonal antibody, recombinantly expressed in HEK293 with rabbit kappa and gamma constant regions

OD 1:5 dilution of supernatant [2]: 0.046 mE | selectivity compared to non-phosphorylated Tau peptide [3]: ≥ 100 fold | OD 1:5 dilution of supernatant [4]: 0.104 mE | EC50 [5]: 0.0011 µg/mL | EC50 [6]: 0.266 µg/mL
B3: anti-Tau pS422 antibody Mab 086 (antibody, V domains shown)
VH: B2 VH with L26F
VL: B2 VL with A7T, I16S, S56F, Y92F
notes: as for B2

OD 1:5 dilution of supernatant [2]: 0.042 mE | selectivity compared to non-phosphorylated Tau peptide [3]: ≥ 100 fold | OD 1:5 dilution of supernatant [4]: 0.029 mE | EC50 [5]: 0.0013 µg/mL | EC50 [6]: 1.28 µg/mL
B4: anti-Tau pS422 antibody Mab 097 (antibody, V domains shown)
VH: QSVEESGGRLVTPGTPLTLTCTVSGIDLSSYSITWVRQAPGKGLEYIGFIGTGGSTYYASWAKGRFTISRTSTTVDLKITSPTTEDTATYFCARGGDLWGPGTLVTVSS
VL: QVLTQTASSVSAAVGGTVTINCQSSQNVYNNNKLAWFQQKPGQPPKRLIYGASTLASGVSSRFKGSGSGTQFTLTISDLECDDAATYYCLGGYSGNIYTFGGGTEVVVK
notes: as for B2

OD 1:5 dilution of supernatant [2]: 0.026 mE | selectivity compared to non-phosphorylated Tau peptide [3]: ≥ 100 fold | OD 1:5 dilution of supernatant [4]: 0.023 mE | EC50 [5]: < 0.003 µg/mL | EC50 [6]: 1.08 µg/mL
B5: anti-Tau pS422 antibody Mab 019 (antibody, V domains shown)
VH: QSVEESGGRLVTPGTPLTLTCTVSGIDLSSYTMNWVRQAPGKGLDWIGFINSGGYTSYASWTRGRFTISKTSTTVDLRITSPTTEDTATYFCARYGGGSGFDLWGPGTLVTVSS
VL: QVLTQTASSVSAAVGGTVTINCQSSQSVYNNRLAWYQQKPGQPPKLLIYKASTLASGVPSRFKGSGSGTQFTLTISDLECDDAATYYCAGGYINIFAFGGGTEVVVK
notes: as for B2

OD 1:5 dilution of supernatant [2]: 0.026 mE | selectivity compared to non-phosphorylated Tau peptide [3]: ≥ 100 fold | OD 1:5 dilution of supernatant [4]: 0.067 mE | EC50 [5]: < 0.003 µg/mL | EC50 [6]: 3.73 µg/mL
B6: anti-Tau pS422 antibody Mab 005 (antibody, V domains shown)
VH: QSVEESGGRLVTPGTPLTLTCTVSGLSLSSNAINWVRQAPGKGLEWIGYISTSGNTYYASWAKGRFTISKTSTTVDLKITSPTTEDTATYFCGRGDLWGPGTLVTVSS
VL: QVLTQTASPVSAAVGSTVTINCQASQSVYKNNYLAWFQQKPGQPPKRLIYSASTLASGVSSRFKGSGSGTQFTLTISDVQCDDAATYYCLGSCDSSSNNCVAFGGGTEVVVK
notes: as for B2

OD 1:5 dilution of supernatant [2]: 0.016 mE | OD 1:5 dilution of supernatant [4]: 0.01 mE
B7: anti-Tau pS422 antibody Mab 020 (antibody, V domains shown)
VH: QSVEESGGRLVTPGTPLTLTCKVSGFSLSSYDMNWVRQAPGKGLEWVGAISTGGNTYYASWAKGRFTISKTSTTVTLTITSPTTADTATYFCARGSSIWGPGTLVTVSL
VL: B6 VL with A35R, F37Y, S51T, S92G, C93Y, S95C, S96N, N98A, N99D, V101W
notes: as for B2

— patent US20110059093A1 (Hoffmann-La Roche, published 2011)
